Values of other authors as cited in PMC11668491.

Molecular target: UBC2 (Saccharomyces cerevisiae) (UniProt P06104)
Chain of UniProt P06104 (P06104 whole entry): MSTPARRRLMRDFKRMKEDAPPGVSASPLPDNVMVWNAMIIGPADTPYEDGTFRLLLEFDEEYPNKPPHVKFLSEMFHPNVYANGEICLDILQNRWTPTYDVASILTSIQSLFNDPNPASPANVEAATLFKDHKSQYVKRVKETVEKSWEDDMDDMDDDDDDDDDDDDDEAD

With UBR1 U2BR (from UniProt P19812) as the substance, how does the Kd read?
Its Kd is 140 nM.
